Measurements: patent publication US12679878B2, “CRF2 receptor agonists and their use in therapy” (SANOFI, priority 2020, dated 2026)
One block for each binder: values may come before it. Starred links: 1 amine or outer side, 2 acyl side, 3 side chain; linkers in the order of their positions; H or OH if unused. Non-standard residues stand in square brackets, D forms with d. Groups on a side chain read outwards from the residue. No end group written: not given here. *: point of attachment. C18 diacid = O=C(O)CCCCCCCCCCCCCCCCC(=O)*; γGlu = O=C(O)[C@H](CCC(=O)[*:2])N[*:1]; AEEA = NCCOCCOCC(=O)O; Aib = CC(C)(N)C(=O)O

Target: human corticotropin-releasing factor 2α (CRF2 α receptor) (human), Q13324
Test: cell-based or functional assay

Sequence of human corticotropin-releasing factor 2α (CRF2 α receptor) (human), Q13324 (Q13324 20-411): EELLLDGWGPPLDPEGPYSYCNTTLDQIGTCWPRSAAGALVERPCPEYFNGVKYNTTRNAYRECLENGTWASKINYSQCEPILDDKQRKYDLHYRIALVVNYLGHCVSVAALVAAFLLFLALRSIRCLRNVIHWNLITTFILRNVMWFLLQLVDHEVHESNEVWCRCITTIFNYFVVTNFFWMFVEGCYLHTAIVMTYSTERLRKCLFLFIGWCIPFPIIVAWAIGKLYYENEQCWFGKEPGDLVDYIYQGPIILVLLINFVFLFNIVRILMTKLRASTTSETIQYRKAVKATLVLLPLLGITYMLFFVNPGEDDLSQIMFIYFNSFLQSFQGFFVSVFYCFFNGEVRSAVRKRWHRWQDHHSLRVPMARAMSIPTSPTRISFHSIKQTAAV

EC50 [nM], 0% HSA: 0.11 nM
B1: SEQ ID NO: 117 (peptide)
peptide: IVLSLDVPIKLK([AEEA-AEEA-γGlu-C18 diacid])QILLKQERQK[Aib]QRQQAEKNKQILAQV-NH2
modifications: N-terminus assumed
SMILES: CC[C@H](C)[C@H](N)C(=O)N[C@H](C(=O)N[C@@H](CC(C)C)C(=O)N[C@@H](CO)C(=O)N[C@@H](CC(C)C)C(=O)N[C@@H](CC(=O)O)C(=O)N[C@H](C(=O)N1CCC[C@H]1C(=O)N[C@H](C(=O)N[C@@H](CCCCN)C(=O)N[C@@H](CC(C)C)C(=O)N[C@@H](CCCCNC(=O)COCCOCCNC(=O)COCCOCCNC(=O)CC[C@H](NC(=O)CCCCCCCCCCCCCCCCC(=O)O)C(=O)O)C(=O)N[C@@H](CCC(N)=O)C(=O)N[C@H](C(=O)N[C@@H](CC(C)C)C(=O)N[C@@H](CC(C)C)C(=O)N[C@@H](CCCCN)C(=O)N[C@@H](CCC(N)=O)C(=O)N[C@@H](CCC(=O)O)C(=O)N[C@@H](CCCNC(=N)N)C(=O)N[C@@H](CCC(N)=O)C(=O)N[C@@H](CCCCN)C(=O)NC(C)(C)C(=O)N[C@@H](CCC(N)=O)C(=O)N[C@@H](CCCNC(=N)N)C(=O)N[C@@H](CCC(N)=O)C(=O)N[C@@H](CCC(N)=O)C(=O)N[C@@H](C)C(=O)N[C@@H](CCC(=O)O)C(=O)N[C@@H](CCCCN)C(=O)N[C@@H](CC(N)=O)C(=O)N[C@@H](CCCCN)C(=O)N[C@@H](CCC(N)=O)C(=O)N[C@H](C(=O)N[C@@H](CC(C)C)C(=O)N[C@@H](C)C(=O)N[C@@H](CCC(N)=O)C(=O)N[C@H](C(N)=O)C(C)C)[C@@H](C)CC)[C@@H](C)CC)[C@@H](C)CC)C(C)C)C(C)C

EC50 [nM], 0% HSA: 0.7 nM
B2: SEQ ID NO: 116 (peptide)
peptide: IVLSLDVPIKLK([AEEA-AEEA-γGlu-C18 diacid])QILLKQERQK[Aib]QREKAEKNKQILAQV-NH2
modifications: N-terminus assumed
SMILES: CC[C@H](C)[C@H](N)C(=O)N[C@H](C(=O)N[C@@H](CC(C)C)C(=O)N[C@@H](CO)C(=O)N[C@@H](CC(C)C)C(=O)N[C@@H](CC(=O)O)C(=O)N[C@H](C(=O)N1CCC[C@H]1C(=O)N[C@H](C(=O)N[C@@H](CCCCN)C(=O)N[C@@H](CC(C)C)C(=O)N[C@@H](CCCCNC(=O)COCCOCCNC(=O)COCCOCCNC(=O)CC[C@H](NC(=O)CCCCCCCCCCCCCCCCC(=O)O)C(=O)O)C(=O)N[C@@H](CCC(N)=O)C(=O)N[C@H](C(=O)N[C@@H](CC(C)C)C(=O)N[C@@H](CC(C)C)C(=O)N[C@@H](CCCCN)C(=O)N[C@@H](CCC(N)=O)C(=O)N[C@@H](CCC(=O)O)C(=O)N[C@@H](CCCNC(=N)N)C(=O)N[C@@H](CCC(N)=O)C(=O)N[C@@H](CCCCN)C(=O)NC(C)(C)C(=O)N[C@@H](CCC(N)=O)C(=O)N[C@@H](CCCNC(=N)N)C(=O)N[C@@H](CCC(=O)O)C(=O)N[C@@H](CCCCN)C(=O)N[C@@H](C)C(=O)N[C@@H](CCC(=O)O)C(=O)N[C@@H](CCCCN)C(=O)N[C@@H](CC(N)=O)C(=O)N[C@@H](CCCCN)C(=O)N[C@@H](CCC(N)=O)C(=O)N[C@H](C(=O)N[C@@H](CC(C)C)C(=O)N[C@@H](C)C(=O)N[C@@H](CCC(N)=O)C(=O)N[C@H](C(N)=O)C(C)C)[C@@H](C)CC)[C@@H](C)CC)[C@@H](C)CC)C(C)C)C(C)C
